Data: patent EP2080771A2 (Maxygen Aps, dated 2009)
Where two headings read alike, the source gives them in different places.

Key:
Test in all cases: cell-based or functional assay
[1] = biological target: T1, Interferon type I receptors on HeLa cells (UniProt P17181 28-557; P48551 27-515, limits assumed)
T1 sequence (looked up) 1: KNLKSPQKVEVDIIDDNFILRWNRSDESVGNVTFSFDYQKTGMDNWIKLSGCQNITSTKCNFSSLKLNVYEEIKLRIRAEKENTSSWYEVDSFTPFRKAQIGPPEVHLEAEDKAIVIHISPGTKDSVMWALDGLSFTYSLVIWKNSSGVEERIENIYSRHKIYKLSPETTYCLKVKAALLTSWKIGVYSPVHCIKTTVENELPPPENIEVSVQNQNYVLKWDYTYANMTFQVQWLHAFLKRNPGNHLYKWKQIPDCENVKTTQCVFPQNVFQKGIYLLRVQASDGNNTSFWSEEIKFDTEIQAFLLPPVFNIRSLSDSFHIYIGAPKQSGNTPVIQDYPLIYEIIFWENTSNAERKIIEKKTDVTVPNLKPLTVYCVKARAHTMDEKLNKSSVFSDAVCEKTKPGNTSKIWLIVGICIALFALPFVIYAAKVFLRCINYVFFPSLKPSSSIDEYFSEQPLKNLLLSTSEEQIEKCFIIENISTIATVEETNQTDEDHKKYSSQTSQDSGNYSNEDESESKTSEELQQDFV
T1 sequence (looked up) 2: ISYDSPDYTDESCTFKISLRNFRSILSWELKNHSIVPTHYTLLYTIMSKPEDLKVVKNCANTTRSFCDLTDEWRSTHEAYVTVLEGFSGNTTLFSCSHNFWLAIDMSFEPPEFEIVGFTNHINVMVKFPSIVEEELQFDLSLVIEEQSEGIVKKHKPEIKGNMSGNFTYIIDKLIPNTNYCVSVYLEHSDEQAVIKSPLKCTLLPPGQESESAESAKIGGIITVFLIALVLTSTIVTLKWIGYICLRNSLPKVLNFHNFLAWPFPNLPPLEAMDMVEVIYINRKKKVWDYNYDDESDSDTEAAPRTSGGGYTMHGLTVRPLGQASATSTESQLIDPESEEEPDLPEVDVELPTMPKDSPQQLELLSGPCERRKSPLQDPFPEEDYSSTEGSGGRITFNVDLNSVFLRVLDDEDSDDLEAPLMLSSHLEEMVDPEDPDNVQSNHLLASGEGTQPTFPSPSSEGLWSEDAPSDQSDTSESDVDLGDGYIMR

[2] = biological target: T1, Interferon type I receptors on HeLa …; remark: listed apart in the source
[3] = biological target: T1, Interferon type I receptors on HeLa …; remark: listed apart in the source

| Binder | INF-β activity, culture medium of transfected CHO K1 cells [1] [IU/ml] | INF-β activity, culture medium of transfected CHO K1 cells [2] [IU/ml] | specific activity relative to wt hINF-β [3] |
| --- | --- | --- | --- |
| [Q48V, Q49N, Q51T]hINF-β (ligand, introduced N-linked glycosylation site at position 49, besides the natural site at N80 (expressed in CHO K1 cells)) MSYNLLGFLQRSSNFQCQKLLWQLNGRLEYCLKDRMNFDIPEEIKQLVNFTKEDAALTIYEMLQNIFAIFRQDSSSTGWNETIVENLLANVYHQINHLKTVLEEKLEKEDFTRGKLMSSLHLKRYYGRILHYLKAKEYSHCAWTIVRVEILRNFYFINRLTGYLRN | 65900 | – | – |
| [Q48F, Q49N, Q51T]hINF-β (ligand, introduced N-linked glycosylation site at position 49, besides the natural site at N80 (expressed in CHO K1 cells)) MSYNLLGFLQRSSNFQCQKLLWQLNGRLEYCLKDRMNFDIPEEIKQLFNFTKEDAALTIYEMLQNIFAIFRQDSSSTGWNETIVENLLANVYHQINHLKTVLEEKLEKEDFTRGKLMSSLHLKRYYGRILHYLKAKEYSHCAWTIVRVEILRNFYFINRLTGYLRN | 53100 | – | – |
| [D110F, F111N, R113T]hINF-β (ligand, introduced N-linked glycosylation site at position 111, besides the natural site at N80 (expressed in CHO K1 cells)) MSYNLLGFLQRSSNFQCQKLLWQLNGRLEYCLKDRMNFDIPEEIKQLQQFQKEDAALTIYEMLQNIFAIFRQDSSSTGWNETIVENLLANVYHQINHLKTVLEEKLEKEFNTTGKLMSSLHLKRYYGRILHYLKAKEYSHCAWTIVRVEILRNFYFINRLTGYLRN | – | 50900 | – |
| [F111N+R113T]hINF-β variant (ligand, introduced N-linked glycosylation site at position 111 (used only about 50%), besides the natural site at N80 (expressed in CHO K1 cells)) MSYNLLGFLQRSSNFQCQKLLWQLNGRLEYCLKDRMNFDIPEEIKQLQQFQKEDAALTIYEMLQNIFAIFRQDSSSTGWNETIVENLLANVYHQINHLKTVLEEKLEKEDNTTGKLMSSLHLKRYYGRILHYLKAKEYSHCAWTIVRVEILRNFYFINRLTGYLRN | – | 58600 | ~2 fold of wt hINF-β |
| [D110V, F111N, R113T]hINF-β (ligand, introduced N-linked glycosylation site at position 111, besides the natural site at N80 (expressed in CHO K1 cells)) MSYNLLGFLQRSSNFQCQKLLWQLNGRLEYCLKDRMNFDIPEEIKQLQQFQKEDAALTIYEMLQNIFAIFRQDSSSTGWNETIVENLLANVYHQINHLKTVLEEKLEKEVNTTGKLMSSLHLKRYYGRILHYLKAKEYSHCAWTIVRVEILRNFYFINRLTGYLRN | – | 15100 | – |
| [Q49N+Q51T]hINF-β variant (ligand, introduced N-linked glycosylation site at position 49 (used only about 60%), besides the natural site at N80 (expressed in CHO K1 cells)) MSYNLLGFLQRSSNFQCQKLLWQLNGRLEYCLKDRMNFDIPEEIKQLQNFTKEDAALTIYEMLQNIFAIFRQDSSSTGWNETIVENLLANVYHQINHLKTVLEEKLEKEDFTRGKLMSSLHLKRYYGRILHYLKAKEYSHCAWTIVRVEILRNFYFINRLTGYLRN | 135000 | – | – |
| [Q48W, Q49N, Q51T]hINF-β (ligand, introduced N-linked glycosylation site at position 49, besides the natural site at N80 (expressed in CHO K1 cells)) MSYNLLGFLQRSSNFQCQKLLWQLNGRLEYCLKDRMNFDIPEEIKQLWNFTKEDAALTIYEMLQNIFAIFRQDSSSTGWNETIVENLLANVYHQINHLKTVLEEKLEKEDFTRGKLMSSLHLKRYYGRILHYLKAKEYSHCAWTIVRVEILRNFYFINRLTGYLRN | 45100 | – | – |
